From article PMC5093151 come the findings set out here.

The subject of this data set is GII.4 Sydney (SYV) norovirus VLP, assembled capsid protein VP1 (Human norovirus GII.4 Sydney). The data set can be described thus: ELASA (plate binding). The following applies: VLP heated 75 C 1 min (partly denatured); 1 uM aptamer; ELASA: VLPs on polystyrene plate, blocked with 5% skim milk in PBS + 0.05% Tween 20 with 10 nM unrelated primers (2 h, room temperature), 1 uM biotinylated ….

As for “AGTATACGTATTACCTGCAGCTGGGAAGAGGTCCGGTAAATGCAGGGTCAGCCCGGAGAGCGATATCTCGGAGATCTTGC [M6-2]”, the binding signal (% of signal with untreated VLP) stood at 20.1.
